In patent US20240352445A1 (ABWIZ BIO, published 2024):

B1: LxC1-G10 (antibody, V domains shown)
VH: EVQLVESGGGLVQPGGSLRLSCTVSGFSLSTYAMSWVRQAPGKGLEWIGVIASNADTYYASWAKGRFTISRDNSKNTLYLQMNSLRAEDTAVYYCARHPGSAGYGYAVYYAMDPWGQGTLVTVSS
VL: DIQMTQSPSSLSASVGDRVTITCQASERVFYGIDWYQQKPGKAPKLLIYGASALWHGVPSRFSGSGSGTDYTLTISSLQPEDFATYYCQQGYMVPIGFGGGTKVEIK
notes: also called light chain engineered candidate
B2: humanized antibody hN2Y (antibody, V domains shown)
VH: EVQLVESGGGLVQPGGSLRLSCTVSGFSLSTYAMSWVRQAPGKGLEWIGVIASNADTYYASWAKGRFTISRDNSKNTLYLQMNSLRAEDTAVYYCARHPGSAGYGYAVYYAMDPWGQGTLVTVSS
VL: DIQMTQSPSSLSASVGDRVTITCKASEDIRYGLNWYQQKPGKAPKLLIYGANTLEAGVPSRFSGSGSGTDYTLTISSLQPEDFATYYCQQGYSTPLTFGGGTKVEIK
B3: SEQ ID NO 12 (antibody, V domains shown)
VH: EVQLVESGGGLVQPGGSLRLSCTVSGFSLSTYAMSWVRQAPGKGLEWIGVIASNADTYYASWAKGRFTISRDNSKNTLYLQMNSLRAEDTAVYYCARHPGSAGYGYAVYYAMDPWGQGTLVTVSS
VL: DIQMTQSPSSLSASVGDRVTITCQASQPIHYAINWYQQKPGKAPKLLIYGTSHRKMGVPSRFSGSGSGTDYTLTISSLQPEDFATYYCQQGYIVALKFGGGTKVEIK
notes: also called selected clone from LxC libraries; LxC clone
B4: SEQ ID NO 18 (antibody, V domains shown)
VH: EVQLVESGGGLVQPGGSLRLSCTVSGFSLSTYAMSWVRQAPGKGLEWIGVIASNADTYYASWAKGRFTISRDNSKNTLYLQMNSLRAEDTAVYYCARHPGSAGYGYAVYYAMDPWGQGTLVTVSS
VL: DIQMTQSPSSLSASVGDRVTITCKASEDIRYGLNWYQQKPGKAPKLLIYGGSYLRWGVPSRFSGSGSGTDYTLTISSLQPEDFATYYCQQGYRVPIRFGGGTKVEIK
notes: As m4; also called selected clone from LxC libraries; LxC clone
B5: SEQ ID NO 16 (antibody, V domains shown)
VH: EVQLVESGGGLVQPGGSLRLSCTVSGFSLSTYAMSWVRQAPGKGLEWIGVIASNADTYYASWAKGRFTISRDNSKNTLYLQMNSLRAEDTAVYYCARHPGSAGYGYAVYYAMDPWGQGTLVTVSS
VL: DIQMTQSPSSLSASVGDRVTITCQASQDVKYAINWYQQKPGKAPKLLIYGTSSRGEGVPSRFSGSGSGTDYTLTISSLQPEDFATYYCQQGYVVSIFFGGGTKVEIK
notes: As m4
B6: G10xA1 (antibody, V domains shown)
VH: EVQLVESGGGLVQPGESLRLSCKASGFTFPNQAMTWVRQAPGKGLEWIGVIASNADTYYASWAKGRFTISRDNSKNTLYLQMNSPRAEDTAVYYCARHPGSAGYGYALYYAMDPWGQGTLVTVSS
VL: DIQMTQSPSSLSASVGDRVTITCQASERVFYGIDWYQQKPGKAPKLLIYGASALWHGVPSRFSGSGSGTDYTLTISSLQPEDFATYYCQQGYMVPIGFGGGTKVEIK
B7: G10xA5 (antibody, V domains shown)
VH: EVQLVESGGGLVQPGGSLRLSCTVSGYTLFPPPVTWVRQAPGKGLEWIGVIASNADTYYASWAKGRFTISRDNSKNTLYLQMNSLRAEDTAVYYCARHPGSAGYGYQYYYAMDPWGQGTLVTVSS
VL: DIQMTQSPSSLSASVGDRVTITCQASERVFYGIDWYQQKPGKAPKLLIYGASALWHGVPSRFSGSGSGTDYTLTISSLQPEDFATYYCQQGYMVPIGFGGGTKVEIK
B8: SEQ ID NO 17 (antibody, V domains shown)
VH: EVQLVESGGGLVQPGGSLRLSCTVSGFSLSTYAMSWVRQAPGKGLEWIGVIASNADTYYASWAKGRFTISRDNSKNTLYLQMNSLRAEDTAVYYCARHPGSAGYGYAVYYAMDPWGQGTLVTVSS
VL: DIQMTQSPSSLSASVGDRVTITCQASQPIYYGINWYQQKPGKAPKLLIYGHTYRAWGVPSRFSGSGSGTDFTLTISSLQPEDFATYYCQQGYRVGLGFGGGTKVEIK
notes: As m4
B9: SEQ ID NO 15 (antibody, V domains shown)
VH: EVQLVESGGGLVQPGGSLRLSCTVSGFSLSTYAMSWVRQAPGKGLEWIGVIASNADTYYASWAKGRFTISRDNSKNTLYLQMNSLRAEDTAVYYCARHPGSAGYGYAVYYAMDPWGQGTLVTVSS
VL: DIQMTQSPSSLSASVGDRVTITCQASQKIHYAINWYQQKPGKAPKLLIYGTSYLGGGVPSRFSGSGSGTDFTLTISSLQPEDFATYYCQQGYIVPNSFGGGTKVEIK
notes: As m4

What was measured:
[1] = molecular target: T1, SARS-CoV-2 spike protein trimer, Omicron (B.1.1.529) variant (SARS-CoV-2, UniProt P0DTC2 16-1213)
[2] = molecular target: T2, SARS-CoV-2 spike protein trimer, Beta (B.1.351) variant (SARS-CoV-2, UniProt P0DTC2 16-1213); assay: BLI (Octet), biotinylated spike trimer on streptavidin sensor, IgG titrated
[3] = molecular target: SARS-CoV-2 spike protein trimer, Kappa (B.1.617.1) variant (SARS-CoV-2, UniProt P0DTC2 16-1213); assay: ELISA, purified IgG
[4] = molecular target: T2, SARS-CoV-2 spike protein trimer, Beta …; assay: ELISA, purified IgG
[5] = molecular target: SARS-CoV-2 spike protein trimer, Alpha (B.1.1.7) variant (SARS-CoV-2, UniProt P0DTC2 16-1213); assay: ELISA, purified IgG
[6] = molecular target: SARS-CoV-2 spike protein trimer, Epsilon (B.1.429) variant (SARS-CoV-2, UniProt P0DTC2 16-1213); assay: ELISA, purified IgG
[7] = molecular target: SARS-CoV-2 spike protein trimer, Gamma (P.1) variant (SARS-CoV-2, UniProt P0DTC2 16-1213); assay: ELISA, purified IgG
[8] = molecular target: T1, SARS-CoV-2 spike protein trimer, …; assay: BLI (Octet), biotinylated spike trimer on streptavidin sensor, IgG titrated
[9] = molecular target: SARS-CoV-2 spike protein trimer, Delta (B.1.617.2) variant (SARS-CoV-2, UniProt P0DTC2 16-1213); assay: as above

Binder	binding result [3]	binding result [4]	binding result [5]	binding result [6]	binding result [7]	further results
B1						Kd [1]: 0.051 nM; fold improvement in IC50 compared to hN2Y [1]: > 13 fold; fold increased affinity compared to hN2Y [2]: > 100 fold
B2						IC50 [1]: 0.26 µg/mL
B3	binds	binds	binds	binds	binds	
B4	binds	binds	binds	binds	binds	
B5	binds	binds	binds	binds	binds	
B6						fold improved affinity compared to LxC1-G10 [8]: 1.2 fold; fold improved affinity compared to LxC1-G10 [9]: > 20 fold
B7						fold improved affinity compared to LxC1-G10 [8]: 15 fold; fold improved affinity compared to LxC1-G10 [9]: > 20 fold
B8	binds	binds	binds	binds	binds	
B9	binds	binds	binds	binds	binds	
